T1: FcγRIIb, extracellular domain with C-terminal His tag (human, UniProt P31994 43-217)
T1 construct: extracellular domain; also called 2b; FcgRIIb; not shown: His tag at the C terminus
T1 sequence (looked up): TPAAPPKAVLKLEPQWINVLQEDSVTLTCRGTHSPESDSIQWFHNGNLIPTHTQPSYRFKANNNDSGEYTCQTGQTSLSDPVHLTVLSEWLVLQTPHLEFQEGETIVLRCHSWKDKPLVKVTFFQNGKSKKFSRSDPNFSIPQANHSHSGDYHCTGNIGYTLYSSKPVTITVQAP

T2: FcγRIIa H (FcgRIIa type H, His at position 131), extracellular domain with C-terminal His tag (human, UniProt P12318 34-217)
T2 construct: extracellular domain; also called 2aH; FcgRIIa H; not shown: His tag at the C terminus
T2 sequence (looked up): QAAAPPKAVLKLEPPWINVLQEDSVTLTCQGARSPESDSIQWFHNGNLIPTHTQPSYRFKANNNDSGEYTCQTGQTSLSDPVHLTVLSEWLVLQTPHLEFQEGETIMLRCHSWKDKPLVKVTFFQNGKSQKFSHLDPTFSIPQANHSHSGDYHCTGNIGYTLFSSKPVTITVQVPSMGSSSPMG

B1: GpH7-A5/GpH7-B3 variant N325_13S/GpL16-k0 (antibody, human IgG1, kappa)
heavy 1: not shown
heavy 2: not shown
light: DIVMTQSPLSLPVTPGEPASISCQASESLVHSNRNTYLHWYLQKPGQSPQLLIYKVSNRFSGVPDRFSGSGSGTDFTLKISRVEAEDVGVYYCSQNTHVPPTFGQGTKVEIERTVAAPSVFIFPPSDEQLKSGTASVVCLLNNFYPREAKVQWKVDNALQSGNSQESVTEQDSKDSTYSLSSTLTLSKADYEKHKVYACEVTHQGLSSPVTKSFNRGEC
notes: He Ab; alteration in one H chain only; also called He Ab
B2: GpH7-A5/GpH7-B3 variant N325_01G/GpL16-k0 (antibody, human IgG1, kappa)
heavy 1: not shown
heavy 2: not shown
light: B1 light
notes: as for B1
B3: GpH7-A5/GpH7-B3 variant N325_20W/GpL16-k0 (antibody, human IgG1, kappa)
heavy 1: not shown
heavy 2: not shown
light: B1 light
notes: as for B1
B4: GpH7-A5/GpH7-B3 variant P331_15Y/GpL16-k0 (antibody, human IgG1, kappa)
heavy 1: not shown
heavy 2: not shown
light: B1 light
notes: as for B1
B5: GpH7-A5/GpH7-B3 variant L328_03V/GpL16-k0 (antibody, human IgG1, kappa)
heavy 1: not shown
heavy 2: not shown
light: B1 light
notes: as for B1
B6: GpH7-A5/GpH7-B3 variant N325_07I/GpL16-k0 (antibody, human IgG1, kappa)
heavy 1: not shown
heavy 2: not shown
light: B1 light
notes: as for B1
B7: GpH7-A5/GpH7-B3 variant L328_07I/GpL16-k0 (antibody, human IgG1, kappa)
heavy 1: not shown
heavy 2: not shown
light: B1 light
notes: as for B1
B8: GpH7-A5/GpH7-B3 variant N325_08L/GpL16-k0 (antibody, human IgG1, kappa)
heavy 1: not shown
heavy 2: not shown
light: B1 light
notes: as for B1
B9: GpH7-A5/GpH7-B3 variant L328_19Q/GpL16-k0 (antibody, human IgG1, kappa)
heavy 1: not shown
heavy 2: not shown
light: B1 light
notes: as for B1
B10: GpH7-A5/GpH7-B3 variant N325_03V/GpL16-k0 (antibody, human IgG1, kappa)
heavy 1: not shown
heavy 2: not shown
light: B1 light
notes: as for B1
B11: GpH7-A5/GpH7-B3 variant P331_20W/GpL16-k0 (antibody, human IgG1, kappa)
heavy 1: not shown
heavy 2: not shown
light: B1 light
notes: as for B1
B12: GpH7-A5/GpH7-B3 variant P331_10E/GpL16-k0 (antibody, human IgG1, kappa)
heavy 1: not shown
heavy 2: not shown
light: B1 light
notes: as for B1
B13: GpH7-A5/GpH7-B3 variant P331_16H/GpL16-k0 (antibody, human IgG1, kappa)
heavy 1: not shown
heavy 2: not shown
light: B1 light
notes: as for B1
B14: GpH7-A5/GpH7-B3 variant N325_04F/GpL16-k0 (antibody, human IgG1, kappa)
heavy 1: not shown
heavy 2: not shown
light: B1 light
notes: as for B1
B15: GpH7-A5/GpH7-B3 variant K334_12R/GpL16-k0 (antibody, human IgG1, kappa)
heavy 1: not shown
heavy 2: not shown
light: B1 light
notes: as for B1
B16: GpH7-A5/GpH7-B3 variant L328_15Y/GpL16-k0 (antibody, human IgG1, kappa)
heavy 1: not shown
heavy 2: not shown
light: B1 light
notes: as for B1
B17: GpH7-A5/GpH7-B3 variant P331_06M/GpL16-k0 (antibody, human IgG1, kappa)
heavy 1: not shown
heavy 2: not shown
light: B1 light
notes: as for B1
B18: GpH7-A5/GpH7-B3 variant K334_20W/GpL16-k0 (antibody, human IgG1, kappa)
heavy 1: not shown
heavy 2: not shown
light: B1 light
notes: as for B1
B19: GpH7-A5/GpH7-B3 variant S337_15Y/GpL16-k0 (antibody, human IgG1, kappa)
heavy 1: not shown
heavy 2: not shown
light: B1 light
notes: as for B1
B20: GpH7-A5/GpH7-B3 variant L328_04F/GpL16-k0 (antibody, human IgG1, kappa)
heavy 1: not shown
heavy 2: not shown
light: B1 light
notes: as for B1
B21: GpH7-A5/GpH7-B3 variant K334_18N/GpL16-k0 (antibody, human IgG1, kappa)
heavy 1: not shown
heavy 2: not shown
light: B1 light
notes: as for B1

The binders below were run against T1, FcγRIIb, extracellular domain with … (assay: SPR (Biacore), relative binding, GpH7-A5/GpH7-B3/GpL16-k0 = 100).

He/Con_2b | Binder
177 % of control | B1
101 % of control | B2
169 % of control | B3
114 % of control | B4
126 % of control | B5
171 % of control | B6
160 % of control | B7
197 % of control | B8
105 % of control | B9
111 % of control | B10
111 % of control | B11
116 % of control | B12
116 % of control | B13
143 % of control | B14
111 % of control | B15
193 % of control | B16
102 % of control | B17
104 % of control | B18
100 % of control | B19
219 % of control | B20
115 % of control | B21

What follows are binders tested against T2, FcγRIIa H (FcgRIIa type H, His at …) in the same assay as above.

He/Con_2aH | Binder
79.7 % of control | B1
56.8 % of control | B2
47.2 % of control | B3
86 % of control | B4
97.8 % of control | B5
38.1 % of control | B6
93.9 % of control | B7
52 % of control | B8
86.8 % of control | B9
45.2 % of control | B10
82.8 % of control | B11
87.1 % of control | B12
84.5 % of control | B13
33.4 % of control | B14
99.7 % of control | B15
90 % of control | B16
85.1 % of control | B17
97.6 % of control | B18
99.4 % of control | B19
71.7 % of control | B20
99.7 % of control | B21

Reference: US20150344570A1 (published 2015)
